# The RNAGym collection of RNA variant scans (doi:10.7554/elife.80360)
# B1: HDV Ribozyme (parent)
# chain: GGCCGGCAUGGUCCCAGCCUCCUCGCUGGCGCCGGCUGGGCAACAUUCCGAGGGGACCGUCCCCUCGGUAAUGGCGAAUGGGACCCA
# Variants of: B1
# Test: self-cleavage, relative activity (ratio to wild type); higher = more cleavage; co-transcriptional
row,Variant,self-cleavage
1,G6C A78G,0
2,G6U A43C,0.0489
3,C14G G28C,0.0415
4,C18A G68C,0.212
5,C41A C61A,1.07
6,G29A C48G,0.0875
7,G10U C21U,0.0532
8,G52C G80U,0.299
9,G28C C49U,0.111
10,U12A A87C,0.251
11,C15G G53C,0.598
12,G28U G76A,0.142
13,C66U A87U,1.23
14,C15G A45G,0.665
15,G1C A16U,0.111
16,C4G C13A,0.0277
17,U20C C85U,0.0475
18,G74C U79A,0.189
19,G17A A45U,0.696
20,C24U C66U,0.629
21,U20G A87C,0.282
22,C64G A70C,0.536
23,C7G G76U,0.237
24,U12C C19U,0.0415

row,Variant,self-cleavage
1,C22A G73U,0.0573
2,G53U C85U,0.969
3,C3U G80A,0.175
4,C36G G38C,0.208
5,U9A U46A,0.743
6,C4A G40A,0.214
7,C49U G50A,1.05
8,C33A A77G,0.104
9,C44G G74A,0.523
10,C22G U72A,0.196
11,G10A A16G,0.584
12,G59U C62U,1.07
13,G25U A71U,0.0396
14,G38A A51C,0.212
15,U9G G54U,0.831
16,C61U C62A,0.978
17,U60A C61U,1.15
18,C58A C84A,0.644
19,C22G U37C,0.136
20,G73C A83U,0.348
21,G28U U65G,0.128
22,C49G G59U,0.889
23,A45G C49U,1.24
24,G25C C44U,0.259

row,Variant,self-cleavage
1,U12C G29C,0.0462
2,C41A C75G,0.0773
3,C26A G52A,1.06
4,G1U G55A,0.208
5,C3U G82C,0.0779
6,G39C A43G,0.147
7,U46A C64U,0.649
8,C75U A87C,0.161
9,G6A C18G,0.115
10,G28A U65A,0.0755
11,C14A C63A,0.755
12,G40C C64A,0.138
13,A45C G50A,0.785
14,G59C U65C,1.01
15,G6A A77G,0.277
16,C15A C64U,0.623
17,G31C U65A,0.394
18,C63U C64A,0.831
19,G5A U23A,0.342
20,C32G A83C,0.0346
21,U65A,0.966
22,C44A G82U,0.0791
23,G31U G52A,0.431
24,G67C G68A,0.955

row,Variant,self-cleavage
1,G10C G67U,0.782
2,U20G G39A,0.0396
3,A51U G81U,0.282
4,G25C A56C,0.115
5,C30U G55U,0.789
6,C21G A51U,0.0354
7,G59U U65G,0.914
8,C63A G82A,0.408
9,C3A G40A,0.412
10,G73U G81C,0.115
11,A16G G68U,1.01
12,A16C C18A,0.0665
13,C49A G54C,0.843
14,G1C U37G,0
15,C22U G25C,0.0852
16,G11A C61A,0.379
17,G6U G55A,0.59
18,G5A G82A,0.0554
19,U9G G80A,0.516
20,C24G G38A,0.0631
21,C18A C58U,0.196
22,C75A G80U,0.118
23,U65C C75A,0.0489
24,G39C C66A,0.361

row,Variant,self-cleavage
1,G82C C84A,0.383
2,G34C G35U,0.306
3,A43U U69A,0.449
4,U23C C32G,0.0415
5,G28A U69G,0
6,C4U G82C,0.0875
7,G38A G74U,0.0934
8,C48U A83G,0.671
9,C33A G38U,0.153
10,U47A G74A,0.688
11,U27C U37A,0.0519
12,C14G C21A,0.0504
13,A42G C86U,0.697
14,U46A U65A,0.914
15,G2C C86A,0.128
16,C63A C66A,0.302
17,C44U A83U,0.208
18,U23G G39U,0.405
19,U9G C49U,0.776
20,G34U C62G,0.117
21,G31A A71G,0.432
22,G31U C85U,0.441
23,G39C U72C,0.155
24,C15G U65A,0.831

row,Variant,self-cleavage
1,C24U G76C,0.997
2,C66U A71C,0.54
3,C13U C41U,0.323
4,G54C G55U,1.05
5,G34U A45G,0.0652
6,U23G G76U,1.05
7,G1C A71C,0.256
8,C58U G82C,0.386
9,U23C C57G,0.6
10,C3A G29C,0
11,U65C G74U,0.523
12,U9A C13A,0.119
13,G67U A70U,0.812
14,U27C C58U,0.539
15,U12C C62G,0.123
16,G40C C84U,0.0852
17,C13U C49U,0.256
18,G59A G68U,0.92
19,U72G A77U,0.185
20,G11U C14A,0.0707
21,G2A C14U,0.169
22,C3G U47A,0.594
23,G34C A42U,0.262
24,U72G G73U,0.554

row,Variant,self-cleavage
1,C21U G40A,0.538
2,C75A A83C,0.181
3,G35A C44G,0.0639
4,G40U C44A,0.107
5,G55C A71C,0.903
6,G1U G31U,0.385
7,C48U C62A,0.847
8,G29A U37A,0.136
9,C30G C44U,0.0213
10,G10C U65A,0.665
11,G28U G53C,0.0692
12,C14A G80A,0.565
13,C21U C64A,0.185
14,C13G A70C,0
15,U9A C84A,0.886
16,U60A U72C,0.415
17,C21A C32U,0.0978
18,C13G G34C,0.178
19,G1A A8C,0
20,G38C,0.239
21,G10C G40C,0.264
22,U27G C66A,0.532
23,C15G G52U,0.684
24,C14A G73A,0.383

row,Variant,self-cleavage
1,C64A U72A,0.491
2,G1C G40U,0.189
3,G17U G76U,0.749
4,C4G C57A,0.374
5,G39C C62U,0.237
6,C15A U47A,0.522
7,U9A A77C,0.383
8,C75G G76A,0.196
9,A16G A71G,0.748
10,G29U G67C,0.136
11,C44A C62G,0.162
12,C21U G53A,0.116
13,C14A A42C,0.0369
14,C13G C18A,0.0831
15,U12A U20C,0
16,C36A G76U,0.119
17,C44A C66G,0.898
18,C22G G28C,0
19,G10A G53C,0.742
20,U23G C48A,0.807
21,U46A U69C,0.779
22,A8C A51C,0.802
23,C57U G74A,0.501
24,C22G G80U,0.142

row,Variant,self-cleavage
1,U9C U65G,1.37
2,C22A U37A,0.0554
3,C18G A70G,0.161
4,A71G C86G,1.01
5,G38C G67U,0.366
6,G5U G54C,0.867
7,G6C C32U,0.63
8,G34U G67C,0.22
9,C36A G52U,0.14
10,C57U G73A,0.891
11,C21U G35C,0.233
12,A77C U79A,0.297
13,C64U U65C,0.914
14,U12C A70C,0
15,G2C G53A,0.108
16,A51G G54A,0.831
17,A78G C84U,0.53
18,C7U A8C,0.917
19,G35C A83U,0.0898
20,C13U C15U,0.733
21,U20C G25U,0.0415
22,G35C U69A,0.443
23,G28U U46C,0
24,G10A G25U,0.0678

row,Variant,self-cleavage
1,A51C G52A,1.04
2,C63A C84G,0.759
3,G10U G80A,0.131
4,G5C G34A,0.0692
5,U20A C86A,0.0723
6,G38C A77G,0.0536
7,C18U U47C,0.332
8,U47A A87U,1.03
9,C36A A77U,0.217
10,U20G G35C,0
11,C4A U79A,0.0739
12,A43G,0.618
13,G53A G81U,0.272
14,A51G G59A,0.787
15,C30A U79C,0.216
16,C19A G68C,0.149
17,A8C C14G,0.237
18,A16U C86A,1.03
19,A8U C18G,0.172
20,U72A A83U,0.166
21,C49U C66A,0.984
22,G31U C62G,0.19
23,C44U C66U,0.817
24,G39C A71G,0.158

row,Variant,self-cleavage
1,C4A U12C,0.095
2,A43U C86A,0.554
3,G2U C13A,0
4,C44A C66A,0.628
5,G2C C86U,0.0779
6,G17A U60C,0.522
7,C15A G53U,0.808
8,U37C G52U,0.997
9,G50C A51G,1.07
10,C32U A78U,0.178
11,C32U G68A,0.888
12,A8C C58G,0.68
13,A16U C22A,0.604
14,G38A G81U,0.176
15,C3U C86G,0.848
16,G35A U37G,0.163
17,U9A A87U,1.03
18,C64U G76C,0.905
19,C7U G73U,0.277
20,U65A U69G,0.806
21,C3G C58G,0.796
22,G31A C58U,0.399
23,C30G G52A,0.0287
24,G67A G82U,0.348

row,Variant,self-cleavage
1,C15A A83U,0.0639
2,U9A C30G,0.138
3,A8G C64A,0.764
4,U23A G54U,0.937
5,G67C G82A,0.108
6,G55U G76A,1.17
7,C41A C48A,0.982
8,A43C C84U,0.135
9,G50U G81A,0.609
10,U37G C85A,0.0875
11,C22A G35C,0
12,G11U C18G,0.158
13,U27A C66A,0.886
14,U9G U60A,0.831
15,C33A G59U,0.338
16,U23A A45G,1.15
17,C30G A43U,0.194
18,C57A C75A,0.277
19,C22G C57U,0.089
20,U23A C66A,0.883
21,U47G C86U,1.11
22,C26G C66U,1.16
23,A16G G59C,0.929
24,A16C C86G,0.653

row,Variant,self-cleavage
1,C3U G67C,0.772
2,A70G C84A,0.853
3,U23G G31A,0.175
4,C61A G80U,0.203
5,C30G G55C,0.111
6,C22A A77U,0.101
7,G1A C32G,0.113
8,U65G U72C,0.415
9,C21U A43G,0.0898
10,C3U C62U,0.762
11,C36U G68A,0.626
12,A16G G34A,0.17
13,G54U A87U,0.973
14,G50A C64U,1.26
15,G35A C49A,0.591
16,A51C C57U,0.969
17,G28U C62U,0.205
18,A45C G59C,0.696
19,A56G A87C,0.993
20,C32A G38C,0.0817
21,U65G G74C,0.309
22,U65C U69G,1.03
23,G28C G81C,0.0875
24,C36A A78C,0.155

row,Variant,self-cleavage
1,C63G G74A,0.326
2,C4U G5U,0.237
3,C30A C66U,0.421
4,G1U A77G,0.406
5,G6U U79A,0.246
6,G80C G81U,0.231
7,U65A A71G,0.831
8,U46C A78U,0.302
9,C26A C85U,0.942
10,C21A G76U,0.0906
11,G2C C30G,0.0594
12,A16C G80A,0.406
13,C3U G52U,0.723
14,C32A A87C,0.129
15,U72G G81U,0.178
16,G34A G53C,0.215
17,G28A C84G,0.0378
18,G29U C57A,0.151
19,G29U G50C,0.153
20,A16U U20G,0.0791
21,C13G U47C,0
22,G35U U37C,0.428
